Measured values taken from patent US12697366B2, “Thermogenic compositions and methods” (Ohio State Innovation Foundation, priority 2016, dated 2026).
Residues, ends and D or L forms follow the SMILES beside them. *: point of attachment. Fmoc = O=C(OCC1c2ccccc2-c2ccccc21)*; Bz = O=C(c1ccccc1)*

Assays:
[1] = system: HT-29 colorectal cancer cells; test: Viability / cytotoxicity assay on HT-29 colorectal cancer cells; type: cell-based, human; details: in vitro
[2] = system: Brainbow (BB) mice fed a high-fat (HF) diet; test: Study 5: recombinant EFNA5 injected into iAb fat of Brainbow mice fed a HF diet; type: in vivo, mouse
Method: Brainbow (BB) B6.Cg-Tg(Thy1-Brainbow1.0)HLich/J mice were purchased from The Jackson Laboratory (n=7, females). 5-week old BB mice were fed a HF for 140 days. Then mice were randomly assigned into groups injected with PBS (n=3) and recombinant EFNA5 (n=4). Mice were individually housed for all treatment periods. Mice were injected into both iAb fat depots with 100 μL PBS/iAb depot or with PBS containing recombinant EFNA5 (Life Technologies, 45 ng/mL) every other day for 1 month. Metabolic measurements were performed. WAT were collected for protein, mRNA, and histology.
Metabolic parameters were measured by indirect calorimetry (CLAMS, Columbus Instruments, Columbus, OH) at ambient temperature (22° C.) with 12 h light/dark cycles. Animals were fed the same HF diet and water was provided ad libitum. Mice were placed individually and allowed to acclimatize in the chambers for 12 h. Oxygen consumption, CO2 production, energy expenditure, and locomotor activity were measured for at least 24 h. […] For cold exposure the temperature was changed to 4° C. for 6 h.
Cell/tissue protein lysates normalized by protein content (BCA, ThermoFisher). Medium was collected from cells plated at similar numbers. Protein lysate or medium were separated on 10% acrylamide gel under reducing conditions. After transfer to a polyvinylidene fluoride membrane (Immobilon-P; Millipore), proteins were analyzed using an Odyssey Infrared Imaging System (LI-COR Biosciences). Peripherin and tyrosine hydroxylase polyclonal rabbit antibodies (Abcam, Cambridge, MA) were used at 1:1000 dilution.

[3] = system: DRG neurons; test: Neurite outgrowth of DRG neurons (ArrayScan XTI, Neuronal Profiling algorithm); type: cell-based, mouse; details: recombinant EFNA5 30 ng/mL, 24 hours
Method: Single cell suspensions from cervical, thoracic, and lumbar DRG neurons were isolated from terminally anesthetized C57BL/6 adult female mice (12-16 weeks old, The Jackson Laboratory). Dissected DRGs were enzymatically digested in a solution of collagenase type 2 (200 U/mL; Sigma, St. Louis, MO) and dispase I (5 U/mL; Sigma) on a shaker for 45 min at 37° C. (Davies et al., 1999). Enzyme solution was aspirated and cells were washed twice in Hank's Balanced Salt Solution 1× (HBSS; Mediatech Inc., Manassas, VA) before incubating in DNase I type II (5 mg/mL; Worthington Biochemical, Lakewood, NJ) for 5 min at room temperature. […] The neuron-enriched pellet was resuspended in DRG culture medium (DMEM/F12, 1% N2 supplement, and 0.05% Gentamicin) and live cells were counted on a hemocytometer using trypan blue exclusion. […] Cells were automatically imaged using a Thermo Scientific™ ArrayScan™ XTI Live High Content microscope and analyzed with the Neuronal Profiling algorithm (ThermoFisher) (Lerch et al., 2014). Total neurite length, average neurite length, number of branch points, critical value, dendrite maximum, and ramification index were averaged across all neurons detected per well, with 3 wells included per treatment. […] Dendrite maximum and critical value are parameters determined based on Scholl analysis, and are automatically generated by the software. […]

[4] = system: 3T3-L1 adipocytes; test: Thermogenic gene expression in 3T3-L1 adipocytes (TaqMan / RT-PCR); type: cell-based, mouse; details: recombinant EFNA5 10 ng/mL, 4 days
Method: FIGS. 9A to 9D show DRG neurons (500 neurons per well) cultured in DRG culture medium only, or DRG culture medium with NT-3 (1 ng/mL), with NGF (10 ng/mL), with WT secretome (1/1, v/v), or with Aldh1a1^−/− secretome (1/1, v/v) for 24 hours. WT and Aldh1a1^−/− adipocytes differentiated for 5 days. Secretome is the media collected from these cells for 24 h. Neurite outgrowth parameters were assayed using the Thermo Scientific™ ArrayScan™ XTI Live High Content microscope and analyzed with the Neuronal Profiling Algorithm (ThermoFisher). Nine independent experiments were performed using DRG from three mice. Each DRG batch was analyzed in triplicate. Data are shown as mean±SD obtained with one DRG batch. Asterisks indicate P<0.05 between different groups; Mann-Whitney U test. FIG. 9A: Representative images show ~25% of area used for the automatic quantification of neuronal parameters in FIG. 3 per one condition. […] FIG. 9B: Secreted EFNA5 levels in the medium from 3T3-L1 preadipocytes and adipocytes differentiated for 4d were analyzed by ELISA. FIG. 9C: Basal metabolic rate (heat) was measured in PBS- and EFNA5-injected mice from Table 1, Study 4 by an open circuit indirect calorimetry treadmill. […] Expression was measured by RT-PCR and normalized by 18S.
FIGS. 11A to 11I show adipokine Ereg is bilaterally associated with obesity and thermogenesis and activates PPARα. […] FIG. 11B: Ereg expression was measured in non-differentiated and differentiated (day 5) 3T3-L1 adipocytes (Mann-Whitney test) using a customized NanoString mouse panel. FIG. 11C: Ereg expression was measured in differentiated (day 5) 3T3-L1 and Aldh1a1^−/− adipocytes by Taqman and normalized to TATA box protein (TBP). FIG. 11D: Plasma EREG concentrations were measured in mice from Study 1 by western blot. […] FIG. 11E: Plasma EREG concentrations were measured and quantified in iAb of WT and ob/ob mice from Study 2 by western blot (n=5 per each group). […] FIG. 11F: EREG was measured in iAb, subcutaneous and brown fat by western blot. […] Expression level were measured by Taqman and normalized by TBP. […]

[5] = Study 5, BB mice, HF diet, EA5 vs PBS

In the case of `NCCCC[C@H](NC(=O)OCC1c2ccccc2-c2ccccc21)C(=O)N[C@@H](Cc1ccccc1)C(=O)N[C@@H](CCCCN)C(=O)N[C@@H](CCCCNC(=O)c1ccccc1)C(N)=O` [Fmoc-KFKK(Bz)-NH2] (Fmoc-KFKK(Bz)-NH2), the “cytotoxic efficacy against human colorectal cell line” value [1] is reported as “no efficacy”.

B1: EFNA5: recombinant ephrin-A5 ligand protein (protein)
chain: QDPGSKVVADRYAVYWNSSNPRFQRGDYHIDVCINDYLDVFCPHYEDSVPEDKTERYVLYMVNFDGYSACDHTSKGFKRWECNRPHSPNGPLKFSEKFQLFTPFSLGFEFRPGREYFYISSAIPDNGRRSCLKLKVFVRPTNSCMKTIGVHDRVFDVNDKVENSLEPADDTVHESAEPSRGEN
For B1, the “metabolic rate on cold exposure” value ([2]; EFNA5- vs. PBS-injected mice, 4° C.) was “increased”, the “tyrosine hydroxylase protein levels in WAT” value ([2]; EFNA5 vs. PBS, after 2 weeks of treatment, Western blot) was “increased” and the “Body Wt.” value [2, 5] was 28.7 ± 3.2 g. For the same molecule, the “Brown Fat” value [2, 5] was 0.1 ± 0.03 g, the “Sub Fat” value [2, 5] was 1.0 ± 0.4 g and the “iAb Fat” value [2, 5] was 1.2 ± 0.5 g. The “dendritic maximum and critical value in neurons” value [3] was “increased” and the “regulation of expression of thermogenic genes (Ucp1)” value [4] was “no direct effect”.
